# Experimental data from article PMC7188906.
# B1: human ACKR4-EYFP [human] / fluorescently labeled human CCL19^Dy649P1 [modified: Dy649P1 (as CoA conjugate) attached site-specifically to the S6-tag by the phosphopantetheinyl transferase Sfp; Dy649P1 (as CoA conjugate) … (parent)
# chain 1: GTNDAEDCCLSVTQKPIPGYIVRNFHYLLIKDGCRVPAVVFTTLRGRQLCAPPDQPWVERIIQRLQRTSAKMKRRSS
# chain 2: MALEQNQSTDYYYEENEMNGTYDYSQYELICIKEDVREFAKVFLPVFLTIVFVIGLAGNSMVVAIYAYYKKQRTKTDVYILNLAVADLLLLFTLPFWAVNAVHGWVLGKIMCKITSALYTLNFVSGMQFLACISIDRYVAVTKVPSQSGVGKPCWIICFCVWMAAILLSIPQLVFYTVNDNARCIPIFPRYLGTSMKALIQMLEICIGFVVPFLIMGVCYFITARTLMKMPNIKISRPLKVLLTVVIVFIVTQLPYNIVKFCRAIDIIYSLITSCNMSKRMDIAIQVTESIALFHSCLNPILYVFMGASFKNYVMKVAKKYGSWRRQRQSVEEFPFDSEGPTEPTSTFSI
# Variants of: B1
# Assay: flow cytometry on cells
# Conditions: with fluorescently labeled human CCL19^Dy649P1 [modified: Dy649P1 (as CoA conjugate) attached site-specifically to the S6-tag by the phosphopantetheinyl transferase; 25 nM CCL19Dy649P1 at 8°C; HeLa cells; read off a plot
row,percent of parent,Variant
1,72 % of wt,chain 2 Y138F
2,90 % of wt,chain 2 T142A T226A
3,83 % of wt,chain 2 S330A
4,110 % of wt,chain 2 S309A
5,90 % of wt,chain 2 S236A
6,110 % of wt,chain 2 Y79F
7,83 % of wt,chain 2 T226A
8,85 % of wt,chain 2 S146A
9,93 % of wt,chain 2 Y68F
10,87 % of wt,chain 2 S323A
11,85 % of wt,chain 2 S148A
12,110 % of wt,chain 2 T142A T226A S309A S323A S330A
13,90 % of wt,chain 2 T142A
14,120 % of wt,chain 2 S309A S323A S330A
